Experimental data reported in patent publication US20250289888A1 (GIGAGEN, published 2025).

Legend:
mouse CTLA-4 = target: T1, mouse CTLA-4 (mouse, UniProt P09793 36-162, limits assumed); assay: BLI (Octet), captured mAb, soluble mouse CTLA-4
T1 construct: antigen of the anti-mouse CTLA-4 BLI measurements; also called murine CTLA-4
Description: The binding specificity and affinity of each full-length antibody towards CTLA-4 were determined using biolayer interferometry (BLI) and/or surface plasmon resonance (SPR). Anti-cyno CTLA-4 and anti-mouse CTLA-4 affinities were tested using ForteBio (BLI). Anti-human CTLA-4 affinities were measured using Carterra (SPR).
For BLI, antibodies were loaded onto an Anti-Human IgG Fc (AHC) biosensor using the Octet Red96 system (ForteBio). Loaded biosensors were dipped into antigen dilutions beginning at 300 nM, with 6 serial dilutions at 1:3. Kinetic analysis was performed using a 1:1 binding model and global fitting.

[1] = target: T2, recombinant human CTLA-4-Fc (human, UniProt P16410 36-162); assay: blocking ELISA: plate-bound rhCTLA-4-Fc, mAb titrated, rhCD86-His binding detected
T2 construct: bought Fc chimera; also called rhCTLA-4-Fc; rhCTLA-4-Fc chimera; Fc part of the bought chimera not given
Description: (§1) Plates were coated with rhCTLA-4-Fc and then blocked with 1×PBST with 5% w/v nonfat dry milk. After blocking a dilution series of the indicated antibody was added to the plate.

[2] = target: human CTLA-4 expressed on cells (human, UniProt P16410 36-223); assay: cell-based or functional assay
[3] = target: T2, recombinant human CTLA-4-Fc; assay: blocking ELISA: plate-bound rhCTLA-4-Fc, mAb titrated, rhCD80-His binding detected
Description: as §1

T2 sequence (P16410 36-162): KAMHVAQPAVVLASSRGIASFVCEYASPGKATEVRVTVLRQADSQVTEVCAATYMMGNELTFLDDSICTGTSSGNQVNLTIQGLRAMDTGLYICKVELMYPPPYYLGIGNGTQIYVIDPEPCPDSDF
Chain of human CTLA-4 expressed on cells (P16410 36-223 limits assumed): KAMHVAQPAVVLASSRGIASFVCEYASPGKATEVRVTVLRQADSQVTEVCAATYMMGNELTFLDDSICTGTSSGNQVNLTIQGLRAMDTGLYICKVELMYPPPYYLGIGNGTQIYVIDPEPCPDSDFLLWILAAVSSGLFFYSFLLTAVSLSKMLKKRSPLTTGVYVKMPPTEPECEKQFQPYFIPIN

| Binder | CD86% inhibition [1] | Promega assay antagonist (EC50. ug/mL) [2] | CD80% inhibition [3] | binding result (mouse CTLA-4) |
| --- | --- | --- | --- | --- |
| Ipilimumab analog (antibody, human IgG1, V domains shown, also called Ipi analog; in-house produced ipilimumab) VH: QVQLVESGGGVVQPGRSLRLSCAASGFTFSSYTMHWVRQAPGKGLEWVTFISYDGNNKYYADSVKGRFTISRDNSKNTLYLQMNSLRAEDTAIYYCARTGWLGPFDYWGQGTLVTVSSA VL: not shown | – | – | – | no binding (tested: antigen dilutions beginning at 300 nM) |
| GIGA-564 (antibody, V domains shown, fucosylation differs between lots (77-95 %); also called antibody A14; aCTLA-4.15) VH: QVQLVESGGGVVQPGRSLRLSCAASGFTFSSYGMHWVRQAPGTGLEWVAVIWYEGRNKYYADPVKGRFTISRDNSKNTLYLQMNSLRDDDTAVYYCARAGDLGAFDIWGQGTMVTVSSA VL: not shown | 54.5% | – | – | – |
| antibody A9 (antibody, human IgG1, V domains shown, full-length human IgG1 (CHO); also called aCTLA-4.24; L9H9) VH: QVQLVESGGGVVQPGRSLRLSCAASGFTFSSHGMHWVRQAPGKGLEWVAVIWYDGSNKHYADSVKGRFTISRDNSKNTLYLQMNSLRAEDTAVYYCARGDILTGYYGYWGQGTLVTVSS VL: not shown | – | 0.19 µg/mL | – | no binding (tested: antigen dilutions beginning at 300 nM) |
| antibody A11 (antibody, human IgG1, V domains shown, full-length human IgG1 (CHO); also called aCTLA-4.31; L11H11) VH: QVQLVESGGGVVQPGRSLRLSCAASGFTFSSYGMHWVRQAPGKGLEWVAVIWYDVGNKYYIDSVKGRFTISRDNSKNTLYLQMNSLRAEDTAVYYCARDYYGSGSPRHFDYWGQGTLVTVSS VL: DIQLTQSPSFLSASVGDRVTITCRASQGISSYLAWYQQKPGKAPKLLIYAASTLQSGVPSRFSGSGSGTEFTLTISSLQPEDFATYYCQQLNSYPPTFGQGTKVEIK | – | 0.42 µg/mL | – | no binding (tested: antigen dilutions beginning at 300 nM) |
| antibody A5 (antibody, V domains shown, full-length human IgG1 (CHO); also called aCTLA-4.28; CTLA4.A5) VH: QVQLVESGGGVVQPGRSLRLSCAASGFTFSSYGMHWVRQAPGKGLEWVAVIWYDGNNKYYADSVKGRFTISRDNSKNTLYLQMYSLRAEDTAVYYCARGGILAAGIFDYWGQGTLVTVSS VL: EIVLTQSPGTLSLSPGDRATLSCRASQSGSSSYLAWYQQKPGQAPRLLIYGASSRATGIPDRFSGSGSGTDFTLTISRLEPEDFAVYYCQQYGTSPFTSGPGTKVDIK | 90.6% | 0.18 µg/mL | 96.3% | – |
| antibody A6 (antibody, human IgG1, V domains shown) VH: QVQLVESGGGVVQPGRSLRLSCAASGFTFSSYGMHWVRQAPGKGLEWVAVIWYDGSYKYYADSVKGRFTISRDDSKNTLYLQMSSLRAEDTAVYYCARAPHYAILTGYYEDYWGQGTLVTVSS VL: not shown | – | 0.18 µg/mL | – | – |
| antibody A2 (antibody, human IgG1, V domains shown, full-length human IgG1 (CHO); also called aCTLA-4.4; CTLA4.A2) VH: QVQLVESGGGVVQPGRSLRLSCAASGFTFSNYGMNWVRQAPGKGLEWVAVIWYDGRNKHYADSVKGRFTISRDNSKNTLYLQMNSLRAEDTAVYYCARGGDWGPYFDYWGQGTLVTVSS VL: not shown | 91.5% | 0.12 µg/mL | 95.4% | no binding (tested: antigen dilutions beginning at 300 nM) |

Second part, led by results:

| CD86% inhibition [1] | Promega assay antagonist (EC50. ug/mL) [2] | CD80% inhibition [3] | Binder | binding result (mouse CTLA-4) |
| --- | --- | --- | --- | --- |
| 78.8% | 0.17 µg/mL | 92.1% | antibody A7 (antibody, human IgG1, V domains shown, full-length human IgG1 (CHO); also called aCTLA-4.3; CTLA4.A7) VH: QVQLVESGGGVVQPGRSLRLSCAASGFTLSSFGMHWVRQAPGKGLEWVAVIWYDGSNKYYADSVKGRFIISRDNSKTALYLQMNSLRAEDTAVYYCARAHYFGAFDIWGQGTMVTVSS VL: not shown | no binding (tested: antigen dilutions beginning at 300 nM) |
| – | 0.26 µg/mL | – | antibody A10 (antibody, human IgG1, V domains shown, full-length human IgG1 (CHO); also called aCTLA-4.22; L10H10) VH: QVQLVESGGGVVQPGRSLRLSCVASGFTLSSYGMHWVRQAPGKGLEWVAVIWYDGSNKHYADSVKGRFTISRDNSKNTLSLQMNSLRAEDTAVYYCARGGQLGPFDYWGQGTLVTVSS VL: not shown | no binding (tested: antigen dilutions beginning at 300 nM) |
| – | 0.13 µg/mL | – | antibody A1 (antibody, human IgG1, V domains shown) VH: QVQLVESGGGVVQPGRSLRLSCAASGFTFSSFGMHWVRQAPGKGLEWVAVIWYDGRNKYYVDSVKGRFTISRDNSNNTLYLQMNSLRAEDTAVYYCARGEFFGEFFDYWGQGTLVTVSS VL: EIVLTQSPGTLSLSPGEGATLSCRASQSFSSNYLAWYQQKPGQAPRLLIYGASSRATGIPDRFSGSGSGTDFTLTISRLEPEDFAVYYCQQYGTSPFTFGPGTKVDIK | – |
| – | 0.15 µg/mL | – | antibody A4 (antibody, V domains shown, full-length human IgG1 (CHO); also called aCTLA-4.29; L4H4) VH: QVQLVESGGGVVQPGRSLRISCAASGFTFSSYGIHWVRQAPGKGLQWVAVIWYDGRNKYYADSVKGRFTISRDNSKNTLYLQMNSLRAEDTAVYYCSRSGSFGAFDIWGQGTMVTVSS VL: EIVLTQSPGTLSLSPGDRATLSCRASQSGSSSYLAWYQQKPGQAPRLLIYGASSRATGIPDRFSGSGSGTDFTLTISRLEPEDFAVYYCQQYGTSPFTSGPGTKVDIK | no binding (tested: antigen dilutions beginning at 300 nM) |
| – | 0.15 µg/mL | – | antibody A8 (antibody, human IgG1, V domains shown, full-length human IgG1 (CHO); also called aCTLA-4.1; CTLA4.A8) VH: QVQLVESGGGVVQPGRSLRLSCAASGFTFSRYGMHWVRQAPGKGLEWVAVIWYDGRNKYYADSVKGRFTISRDNSKNTLYLQMNSLRAEDTALYSCARAGELGPFDYWGQGTLVTVSS VL: EIVLTQSPGTLSLSPGERATLSCRASQSVSYLAWYQQKPGQAPRLLIYGASSRATGIPDRFSGSGSGTDFTLTISRLEPEDFAVYYCQQYGSSPWTFGQGTKVEIK | no binding (tested: antigen dilutions beginning at 300 nM) |
| – | 0.18 µg/mL | – | antibody A3 (antibody, human IgG1, V domains shown, full-length human IgG1 (CHO); also called aCTLA-4.2; L3H3) VH: QVQLVESGGGVVQPGRSLRLSCIASGFTFSSYGMHWVRQAPGKGLEWVAVNWYDGSNKHYADSVKGRFTISRDNSKNTLYLQMNSLRAEDTAVYYCARGGVWGPYFDYWGQGTLVTVSS VL: not shown | no binding (tested: antigen dilutions beginning at 300 nM) |
| – | 0.09 µg/mL | – | antibody A13 (antibody, human IgG1, V domains shown) VH: QVQLVESGGGVVQPGRSLRLSCAASGFTFSSYGMHWVRQAPGKGLEWVAVIWYDGRNKDYADSVKGRITISRDNSKNTLYLQMNSLRAEDTAVYYCARGGLLGPYFDYWGQGTLVTVSS VL: not shown | – |
